Values quoted from earlier work in article PMC6716794.

How the values were obtained:
thrombin ABE I = thrombin ABE I (UniProt P00734); assay: NMR
Thrombin (Homo sapiens) = Thrombin (Homo sapiens) (UniProt P00734)
thrombin ABE II = thrombin ABE II (UniProt P00734)

PAR3GEL, sequence (O00254 39-374): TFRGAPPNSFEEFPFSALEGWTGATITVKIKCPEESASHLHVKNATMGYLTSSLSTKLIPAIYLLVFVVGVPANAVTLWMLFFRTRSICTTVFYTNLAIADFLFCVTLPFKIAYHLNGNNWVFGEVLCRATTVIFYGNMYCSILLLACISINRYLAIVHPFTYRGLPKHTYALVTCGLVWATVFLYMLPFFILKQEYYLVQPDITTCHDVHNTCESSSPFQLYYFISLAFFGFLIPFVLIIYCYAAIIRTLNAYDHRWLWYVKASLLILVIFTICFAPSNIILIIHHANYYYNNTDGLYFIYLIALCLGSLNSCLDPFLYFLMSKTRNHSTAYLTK

Row | Kd (thrombin ABE I) | Kd (Thrombin (Homo sapiens)) | Kd (thrombin ABE II) | Substance
1 | 47000 nM | – | – | PAR3GEL (from UniProt O00254)
2 | – | 5.9 nM | 5.9 nM | GpIbα 269-286 (from UniProt P07359)
